In the NTF2 design screens of Basanta et al. (2020):

Assay: protease stability score; higher = more stable; yeast display proteolysis, trypsin and chymotrypsin;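 further: relative to predicted unfolded state with 0 unfolded-like and 1 meaning tenfold more protease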

| Sequence | protease stability score |
| --- | --- |
| SEDEELIRRFLDEFEKVIRTGNETELQRLMDPNTRFEIDGVEYHGREEVSNLLIDWAKELRLHSLHFRHIELQGEKIKIDTRENREVDGKRHVRRTEIILIKIDGRWYLHSMRYE | 1.98 |
| SEDEELLHKVLNEFIHNVKTGDWEIITRLLDPHALLRVNGVNHIGREDLDRQLKKDFQEMRLHNIHVDDLKIQGEWIHVDTTLDIHINGVRVHFKAHIRVLKIDGRWIVHSREIR | 1.32 |
| SEDEELLKKFFERLLHALRTGDEDHLRTLIDPHARLIQGDKHYIGREQLEHSLHIILSHIRFEHHDSRREEIQGDKAIVHSHLIVRQGDKTYRLDVTFHLEKVNGRWVIREVDLN | 1.33 |
| SEDEELLRESVRIFREAMRTGDEEFSERMIDPNVRIHIGDKEYIGREWASEWHKRLGIKHSRFRHIEIQGDFMIADVENKVGDKHIQVEYWRHKINGRWIIESIKVH | 1.55 |
| SEDEELMKKVFEIFLNHLETGDWRELEKLLDPHAQLNIDGRDYHGWDKITEEMRKLGMTMHSELEHVRFQGDKIDLKGYVKVRIGDKEIRRSTRYVALKVDGRWEERSIILL | 1.41 |
| SEDEELMRRAEDFIIETWETGDWELLHHLADPRVQLDINGRTEHGRENMNEALRRWLDDLGFDHHRVRKKHVIDGRVILDFEIFQGDKEVHLHLHNVVVNGRMKSVHFKLQDN | -0.052 |
| SEDEELRQIAVEFILHILWTGDEELLYKYFDPHVRSDINGRRTHGRENMLRAIREMMRKIKGIQLTSLHITDIEIIGDYLNIDGHFRLNYDGKETDLSLKIDIFKINGKWSIHAISYR | 2.08 |
| SEDEELSKKAVEDILRNLETGDWETISRMADPHVRVDFNGVDIHGREVMSKMFEDELRDLGVTKVDVRLHDVDSQGDKVIVHHRVHVNGRTEEVEVHATKFNGKWVIKKMTVRVK | 1.19 |
| SEDEELSKYLNEEINEILRTGDEDRWKELADPNTLLIIDGREFHGMELVIHLLHHLWKRLGIDQIHSTVEDEKVQGDKIIFHHRLEYNGRESHVIIISHKFNGRWRAKRVEVN | 1.43 |
| SEDEELSQKALEMVKHSSDTGDEKTTRQLMDPNYRMVIGDYELHGWELVVDFVRHARYDDLIMRRWDSQGDKIHLDGETIVNVGDKILHTRVRLIALKVNGQWKLNSVIFH | 0.149 |
| SEDEELSRIISHLEVDLVHTGDEDTMRKLFDPNAKSHIHVGEYNIESHGREWISILWTDLGADHRELDEIQTDVQGDKVFVNMDLTMDVDGVSHRMFIQFVSVKVDGRWTIKEINVSVI | 1.81 |
| SEDEELTNKMRHLFLHAVRTGDETVLNRLIDPNTKLHINGVDIHGREEVRTLLREMRRHEFRTRTVEIRVIDGRVEVREDVERNGVVNGQEYETRVIIIYHAVKVDGKWVWTEIRFEER | 0.609 |
| SEDEELVDHAWETYLRNLLTGDERTLADLIDPHVRVHINGVEFIGREELIKWLSEIRIRTIRVRRRSLINGRVEIIVDLELQVGDKHDRVTIYLIMDKFDGRWIHHTFSVE | 0.41 |
| SEDEELVELMMKLIMELRKTGDEESIRRLADPNVRLDFNGRDNHGREHATKWIRDIVEHLRLRRFEIHNVEFQGNKAVVRSRIIMDWDGQDFHLDVIIILNKFNGRWFIHSQIVH | 1.49 |
| SEDEELVERAIRWLESILQTGDEHVLEHFADPHVRVTVGDYDDHGRHAIHTVWRLMGVNHSEIKRKDIQVVNGVIYIHLDGVSRVNGRNFKLSIHVILEKIDGRWHVRTLHVDIK | 1.05 |
| SEDEELVERALQEFLEHLETGDFETLRDQVDPNARVDIDGRERIGRHDILKHWEEWRWHEIKLKHVEFQGDFVHLDGKVRITIDGKEISTHVKILVYKVNGRWLMKELRIG | 2.27 |
| SEDEELVHHIIKLWLESLVTGDERVFEELADPNVLLVVGEKTHHGRELYSEMFEILVTEIRFHEVHIRHYRHQGDKVKLDLRIDGEIDGQKTHDKAHIILHKIDGRWQLRSMIIH | 1.33 |
| SEDEELVRKATEDFINMHRTGDEDELRKMMDPDDKLRIGDKEVIGREAVITWLMEWLKKMGVNHIRFHRVHLFDGKIHVDGELHIGDKEFEIHIFALKINGRWIRESEEIK | 1.39 |
| SEDEELVRRAVHRFIKLLETGDWDKIQNNVDPHVRLHVDGVDFIGRELFIHWVDRVKGMRHDIRDVRIEFHGDKAHIDMVTELEIGDKRRETRVHLVMRKINGRWIIESEEYRII | 2.64 |
| SEDEEMAKESVEHVIHALETGDFELFHKMADPSVQLDIDGREFIGWEEVRKHLEELRIERVHIRRLHIELINGQVRSTSDIEMDIRIGDYKIRTEVKVHIIIDKVNGRWRLRSMKIINH | 1.57 |
| SEDEEMARRFFEHLLHLWRTGDEEILRNLVDPDTQMQIGDKHLHGRDAVEHMIRRIDHVEVRKVRMREIRVQGDYVVIHVELDGTQEVNGKRIEQHIEFTVFVHKVDGRWIWRSIYQI | 1.37 |
| SEDEEMIRELAEIFIKNWETGDEEDRWKLMDPNARIEVNGKQNHGREEDERHSKELGFKHIEVRIKRSRIVGDKAEIDGELYMRYDGKTEHVKVHIHVQIVDGRIKIVSFKIR | 1.31 |
| SEDEEMLRKILELLVESLLTGDWKTVARLADPHVRLEIGDKIFHGRERFIDHLKLLGIDHIEIRLRDMKIIGDKLDTEVEVVERVGDKEIHRDTTLHIRKVNGRWLIKKVILE | 2.01 |
| SEDEEMLRLAWEIHREILDTGDWKMFEELADPHTRIEVGEYINVGRETASKFILDNVRKIKNMRLHVHEHRTIDGKLEIHLRVNVNGQHRTLFLFASKFDGVWIITSVVVEIR | 1.18 |
| SEDEEMLRRIIEELNRAHKTGNWRRIAELMDPDVRLIIGDKENHGRSVLIEWLKRIDHIEVESVDIHHIDSQGDKIILHGQVHLINVYNGVEVQENRDMTVILIKVDGRWFFHSIRVR | 2.56 |

| Sequence | protease stability score |
| --- | --- |
| SEDEEMNRLAIELLLRYMRTGDEHKLEELADPNVRIEVGDKESVGREVFLRFWMHLKKKLGIDVVEIELHEIKHYDGRVHSDTRFIMNVNGVEYRRDTEVVAHKVDGKWMLEHVHVE | 0.92 |
| SEDEEMSHNIAKMWVDALMTGDEEVLHNLADPRVRLDINGVIVHGREEFTKTMEDKLRHMRIHHINIRDIDIQGDYVRVDVRSDIFVDGKRHHVTTTLIIFKVNGRWLLHEIVVR | 1.95 |
| SEDEEMSKEASEWMLEIILTGDEDSLRKLLDPDYRLHVDGQEFHGRENVVKAFMEWLQRFGIKHIHLEDTRIEVQGDKVIVHERTHVDVNGKKTETELFLIALKFDGKWMTHSIEIRYE | 2.09 |
| SEDEEMTKKMVEELNHNLLTGDEERLKKQADPNAKVHQGEYNLVGMDQFVRLIKEWRIHHVDMRDIRIFDGVAFIDFEEDIEIDGVRIQTRTHIIILKVNGRWRFKQWEMR | 0.862 |
| SEDEEMTRKYFERYIRWLVTGDPKLLSELVDPNVKLIYNGRHLHGREFLVEWEMEILREARLHSVHVRDVKLFNGRLRMDVEINIEIGDKKSVVESNIVALKVNGRWVLESYEVD | 1.42 |
| SEDEEMVEKAHQIEKESLETGDEKMILDLLDPNVRIRVDGVDFHGWEHAEKLLRELRIERVNLRSFTWQGDFLRLDGELTFDYNGKKIRTKVRIYADKVDGRWFHKSHEVT | 1.1 |
| SEDEENAERFIQHWVHNMETGNEERLFELADPNVRLDVNGRDLIGREEFQKSMRWLINRVKNITVRVDKVTIQGNKLLVHTEVRVGDKHHETELIFLKVDGRWRIHEMRIV | 1.52 |
| SEDEENAKFVLHELYKADETGDERKQSHMMDPNVRIIVGDKEWVGRDEVVELMHEIRVHRVHIDDFRFQGDKIEVHGTTKGEFNGKRDVYHVHWLILKIDGRWRLQSLEVR | 1.11 |
| SEDEENIKRHLEIWFTALKTGDEDTSRRMIDPNARFQVGDKHEHGMDSLVRELLREWKERGIELKSIRTTEIHIQGDKIFLNSRRDVLVNGVRIILETEIRFLKVDGRWLITEVSER | 1.22 |
| SEDEENIRRIIRRFVHTFETGDEDIMRELADPHVRLIFNGQHYIGREWVVEIMSEHVKRADHTEVHIHEIHIIGDKVKVHSRLHINVDGVFRNIELRIDIMKVNGRWLIHHVEFR | 1.48 |
| SEDEENVEKFVRELIHNSRTGDEEKFMSLLDPNTRIHVDGRTFHGMELASEALKLLGVKVFHVHRIKVVGEWAHVDGEVNFNGKDHKVSFHSRKVNGQWLLESVEIQ | 1.22 |
| SEDEEQAEHFLRLLVEALVTGDEDKIMKLIDPNVRLEAEGHDHHGRELFVKFWMELRVKEVQIEDVKLWNGRVRFDVRFDGTFNGKRFESTSHIILTKINGKWVLKKVEMR | 0.106 |
| SEDEEQAERFARELIEVLRTGNEELLTHLLDPNTMLRVNGVEHHGREAYLHYTREMRYHHIDIEHFDVQGDKLYLHNRMDGQVDGRRVDVRIRIQVEKVNGRWKLRQERHQ | 0.524 |
| SEDEEQARHFVEMLEHVERTGDWRELEKLVDPHVIMDIDGVRHHGRHEVVDLSKKLGVDHVSLEHLEVQGDKAIIHFNMHVNGVEMHHHVDTRKVNGRWLNERIILK | 0.488 |
| SEDEEQMKRFLDHWIHFLQTGDEEESNKLADPHTRMEIGDFELHGREEYRKWFRHIIERVDHTDVRTKDSDIVNGVAIHDIEIHIEVGDKRIRRKSEMVVLKVDGRWYIQRMHFI | 0.846 |
| SEDEEQSRHAFELWVRAYLTGNEEFLEKNADPNTRFIVGDKHIHGRELVFEFLKRIIDRRGMEIKDIKMRDMRVIGEKIEVDTTLHQHYNGVDFDHQIHFIMIKIDGKWKIKTIEIR | 1.43 |
| SEDEERARRFFEELIHVLHTGDEDSLIKMADPSVRLDFNGVEAVGREEFERMFKEIWREIRLEDLTSHHIDVFNGRIRIESKSHIEVNGVQITRDELVIVTKINGKWHLHSREVK | 1.56 |
| SEDEERLRKFAEHMVNLWFTGNENELTKLIDPDTRIDIDGKELHGMELAFRVLQEHLEKLGVKHQEVRDVEIYGDKFILHWTLHVGDFTLRMEVRIVVINGRVKSMEFRTDHR | 1.89 |
| SEDEERSKLIIDLWEHTQSTGDESLIERLLDPDARSHWDGVHVHGRKATKIMIERIDYVERVDFKEIRTYDGRVEIHGTIDGNFNGRRREMEVIIFVVKVDGKWRIRSIRFT | 1.3 |
| SEDEERTRRISKHMLELYKTGDEDTWIKEADPNTINKIHAENHRIENHGREEVHKVLVELWERLGVKHVDLKDFDMQGEKVIIFIELRAENRIVTNIIRIVIIDGKIKSIEIELRFI | 1.21 |
| SEDEESAKFVIQLILHSLRTGDFKIIEDLLDPNARVQINGVELHGRERVHEHWERIDHIEDVRIREVSVQGDKLVLNVERREKQGDYESSTKVIIYARKVNGKWVIDEVEVR | 2.55 |
| SEDEESFRHIIELMKHSLKTGDWRHLEKLLDPNARVHINGKESHGREEAVKAFRHTWEMLGIDHIEFKDEKIRMQGNKVHVHIDGVINVNGVELKSHFEHHIVKFNGRWHTEKLVIQLD | 1.93 |
| SEDEESLKKFIELLFHSLHTGDWKDIHKNLDPHVRIEFNGQELHGREELIELIEELMKRFDHIHFRFRDVRIYGNKAVLETELELRVGDKSSRIDVTIIIEKVNGRWIIRRLHFK | 2.48 |
| SEDEESMRRAMEIWEKTMETGDERIYEELVDPDVKIEINGKNFIGREDAVKVFHKLGIKVSEIREVRIIGDKMILKGEDNINGRNVDSRLITRKINGKWIIESFSIV | 1.22 |
| SEDEESSEKAAKFWLEMLRTGDWEEFERLADPNTKTHQGDKTIHGMEIVIEILMRVKGARVDTTHVRIDVQGDFVIFDVDNILNINGVHTEIRIHLRVLKVNGRWRVKELTIKHK | 1.57 |
